From paper doi:10.1101/2021.01.28.428652

Key:
[1] = target: MIK2^ECD-6xHIS, extracellular leucine-rich repeat domain of MALE DISCOVERER 1-… RECEPTOR-LIKE KINASE 2 (Arabidopsis thaliana) (UniProt Q8VZG8); test: ITC
[2] = target: MIK2^ECD-6xHIS, extracellular leucine-rich repeat domain of MALE DISCOVERER 1-… RECEPTOR-LIKE KINASE 2 (Arabidopsis thaliana) (UniProt Q8VZG8); test: SPR

Sequence of UniProt Q8VZG8 (Q8VZG8 44-707): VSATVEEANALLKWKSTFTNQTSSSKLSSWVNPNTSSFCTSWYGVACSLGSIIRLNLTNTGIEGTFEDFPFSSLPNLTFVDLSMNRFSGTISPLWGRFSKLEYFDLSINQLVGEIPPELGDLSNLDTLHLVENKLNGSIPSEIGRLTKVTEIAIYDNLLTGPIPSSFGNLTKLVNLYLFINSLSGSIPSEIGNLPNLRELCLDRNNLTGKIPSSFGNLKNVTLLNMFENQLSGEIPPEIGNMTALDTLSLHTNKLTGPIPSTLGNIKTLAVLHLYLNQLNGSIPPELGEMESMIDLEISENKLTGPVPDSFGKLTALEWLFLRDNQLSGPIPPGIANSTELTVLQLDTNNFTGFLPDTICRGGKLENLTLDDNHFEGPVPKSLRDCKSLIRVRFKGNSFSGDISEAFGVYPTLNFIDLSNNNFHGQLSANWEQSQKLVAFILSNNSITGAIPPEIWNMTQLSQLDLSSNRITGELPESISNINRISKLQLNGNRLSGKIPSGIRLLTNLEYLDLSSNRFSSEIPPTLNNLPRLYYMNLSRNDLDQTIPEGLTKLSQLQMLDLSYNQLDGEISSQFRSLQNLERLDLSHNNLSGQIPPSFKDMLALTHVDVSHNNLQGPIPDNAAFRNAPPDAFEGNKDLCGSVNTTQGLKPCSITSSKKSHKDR

Row | Substance | Kd [1] [µM] | stoichiometry N (ligand molecule per receptor molecule) [1] | Kd [2] [µM]
1 | SCOOP12 peptide (SERINE-RICH ENDOGENOUS PEPTIDE 12) | 3.18 | 1 | 1.78
2 | SCOOP12^SS/AA peptide |  |  | 3480
